Data: patent publication US20150374698A1

Target: AVP V1A receptor (mouse) (UniProt Q62463)
Assay: cell-based or functional assay

Sequence of AVP V1A receptor (mouse) (Q62463 whole entry): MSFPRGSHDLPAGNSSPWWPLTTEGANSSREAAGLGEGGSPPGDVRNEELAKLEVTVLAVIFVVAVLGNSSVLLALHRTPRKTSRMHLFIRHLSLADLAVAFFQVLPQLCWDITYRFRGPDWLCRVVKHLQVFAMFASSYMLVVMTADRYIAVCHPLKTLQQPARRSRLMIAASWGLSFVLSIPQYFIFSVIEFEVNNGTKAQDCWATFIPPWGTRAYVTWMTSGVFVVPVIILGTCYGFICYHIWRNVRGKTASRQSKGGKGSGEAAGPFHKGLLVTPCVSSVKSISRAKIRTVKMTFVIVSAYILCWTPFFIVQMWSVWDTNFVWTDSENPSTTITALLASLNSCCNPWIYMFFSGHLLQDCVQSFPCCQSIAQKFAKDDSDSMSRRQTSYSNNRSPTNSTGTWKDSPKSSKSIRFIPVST

Work on “arginine vasopressin (from UniProt P01185 20-28) (peptide)” yielded an EC50 of contractile response, 2°-branch mesenteric artery, control mice of 0.57 nM, an EC50 of contractile response, 2°-branch mesenteric artery, sRA mice of 15.9 nM and an EC50 of contractile response, abdominal aortic rings, control mice of 2.19 nM. It also gave an EC50 of contractile response, abdominal aortic rings, sRA mice of 3.72 nM, a Maximum Response (contraction), 2°-branch mesenteric artery, control mice of 52.5% and a Maximum Response (contraction), 2°-branch mesenteric artery, sRA mice of 17.3%. It also gave a Maximum Response (contraction), abdominal aortic rings, control mice of 0.29 g and a Maximum Response (contraction), abdominal aortic rings, sRA mice of 0.12 g.
